In PMC12102759 (2025):

B1: PEX5 peptide 240-255 (Peroxisomal targeting signal 1 receptor), 16-mer library wild type / PEX14 Pex14 (PEX14 PEX14, residues 16-84) (parent complex)
chain 1: AEQWAAEFIQQQGTSD
chain 2: TPGSENVLPREPLIATAVKFLQNSRVRQSPLATRRAFLKKKGLTDEEIDMAFQQSGTAADEPSSLGPAT

Variants of: B1
Test: proteomic peptide phage display deep mutational scan (ProP-PD DMS): M13 P8 16-mer library selected against immobilised GST-tagged bait for four days (rounds), NGS of the eluted pools per day and pseudo-replica; bait immobilised on MaxiSorp plates (10 µg), library pre-cleared on GST, 2 h binding at 4 °C, five washes; one round per day, days 1-4; value from days 2 and 3

Q: For chain 1 Q10M, which screen value is on record?
A: The screen value was 0.00324 average fractional NGS count over selection days 2 and 3 (reads of this peptide / all reads for the bait, averaged over ….

Q: chain 1 Q10F was tested. Which screen value did it give?
A: Its screen value is 0.00183 average fractional NGS count over selection days 2 and 3 (reads of this peptide / all reads for the bait, averaged over ….

Q: With chain 1 Q10H as the variant, how does the screen value read?
A: The screen value was 0.00189 average fractional NGS count over selection days 2 and 3 (reads of this peptide / all reads for the bait, averaged over ….

Q: How did the screen value turn out when chain 1 Q10D was run?
A: Its screen value is 0.000871 average fractional NGS count over selection days 2 and 3 (reads of this peptide / all reads for the bait, averaged over ….

Q: Which screen value does the source give for chain 1 Q10T here?
A: The screen value was 0.00279 average fractional NGS count over selection days 2 and 3 (reads of this peptide / all reads for the bait, averaged over ….

Q: chain 1 Q10L was tested. Which screen value did it give?
A: Its screen value is 0.00121 average fractional NGS count over selection days 2 and 3 (reads of this peptide / all reads for the bait, averaged over ….

Q: With chain 1 Q10I as the variant, how does the screen value read?
A: Its screen value is 0.00252 average fractional NGS count over selection days 2 and 3 (reads of this peptide / all reads for the bait, averaged over ….

Q: With chain 1 Q11V as the variant, how does the screen value read?
A: The screen value was 0.0012 average fractional NGS count over selection days 2 and 3 (reads of this peptide / all reads for the bait, averaged over ….

Q: How did the screen value turn out when chain 1 Q11W was run?
A: The screen value was 0.000954 average fractional NGS count over selection days 2 and 3 (reads of this peptide / all reads for the bait, averaged over ….

Q: Which screen value does the source give for chain 1 Q11H here?
A: Its screen value is 0.00664 average fractional NGS count over selection days 2 and 3 (reads of this peptide / all reads for the bait, averaged over ….

Q: With chain 1 Q11L as the variant, how does the screen value read?
A: The screen value was 0.0026 average fractional NGS count over selection days 2 and 3 (reads of this peptide / all reads for the bait, averaged over ….

Q: How did the screen value turn out when chain 1 Q11S was run?
A: The screen value was 0.000902 average fractional NGS count over selection days 2 and 3 (reads of this peptide / all reads for the bait, averaged over ….

Q: For chain 1 Q11G, which screen value is on record?
A: The screen value was 0.00455 average fractional NGS count over selection days 2 and 3 (reads of this peptide / all reads for the bait, averaged over ….

Q: Which screen value does the source give for chain 1 A6V here?
A: Its screen value is 0.00173 average fractional NGS count over selection days 2 and 3 (reads of this peptide / all reads for the bait, averaged over ….

Q: For chain 1 A6G, which screen value is on record?
A: Its screen value is 0.00471 average fractional NGS count over selection days 2 and 3 (reads of this peptide / all reads for the bait, averaged over ….

Q: Which screen value does the source give for chain 1 A6S here?
A: Its screen value is 0.00105 average fractional NGS count over selection days 2 and 3 (reads of this peptide / all reads for the bait, averaged over ….

Q: With chain 1 A6Y as the variant, how does the screen value read?
A: Its screen value is 0.00438 average fractional NGS count over selection days 2 and 3 (reads of this peptide / all reads for the bait, averaged over ….

Q: chain 1 A6I was tested. Which screen value did it give?
A: The screen value was 0.00623 average fractional NGS count over selection days 2 and 3 (reads of this peptide / all reads for the bait, averaged over ….

Q: chain 1 A6R was tested. Which screen value did it give?
A: Its screen value is 0.00273 average fractional NGS count over selection days 2 and 3 (reads of this peptide / all reads for the bait, averaged over ….

Q: For chain 1 A6D, which screen value is on record?
A: Its screen value is 0.0111 average fractional NGS count over selection days 2 and 3 (reads of this peptide / all reads for the bait, averaged over ….

Q: Which screen value does the source give for chain 1 E7W here?
A: The screen value was 0.00666 average fractional NGS count over selection days 2 and 3 (reads of this peptide / all reads for the bait, averaged over ….

Q: For chain 1 E7K, which screen value is on record?
A: Its screen value is 0.000488 average fractional NGS count over selection days 2 and 3 (reads of this peptide / all reads for the bait, averaged over ….

Q: Which screen value does the source give for chain 1 E7Y here?
A: Its screen value is 0.00419 average fractional NGS count over selection days 2 and 3 (reads of this peptide / all reads for the bait, averaged over ….

Q: With chain 1 E7I as the variant, how does the screen value read?
A: Its screen value is 0.000858 average fractional NGS count over selection days 2 and 3 (reads of this peptide / all reads for the bait, averaged over ….

Q: For chain 1 E7A, which screen value is on record?
A: The screen value was 0.00276 average fractional NGS count over selection days 2 and 3 (reads of this peptide / all reads for the bait, averaged over ….

Q: How did the screen value turn out when chain 1 E7L was run?
A: The screen value was 0.0199 average fractional NGS count over selection days 2 and 3 (reads of this peptide / all reads for the bait, averaged over ….

Q: How did the screen value turn out when chain 1 E7Q was run?
A: Its screen value is 0.00112 average fractional NGS count over selection days 2 and 3 (reads of this peptide / all reads for the bait, averaged over ….

Q: chain 1 E7T was tested. Which screen value did it give?
A: The screen value was 0.0012 average fractional NGS count over selection days 2 and 3 (reads of this peptide / all reads for the bait, averaged over ….

Q: For chain 1 E7G, which screen value is on record?
A: The screen value was 0.00104 average fractional NGS count over selection days 2 and 3 (reads of this peptide / all reads for the bait, averaged over ….

Q: How did the screen value turn out when chain 1 G13P was run?
A: The screen value was 0.00036 average fractional NGS count over selection days 2 and 3 (reads of this peptide / all reads for the bait, averaged over ….

Q: How did the screen value turn out when chain 1 G13Y was run?
A: Its screen value is 0.000307 average fractional NGS count over selection days 2 and 3 (reads of this peptide / all reads for the bait, averaged over ….

Q: How did the screen value turn out when chain 1 G13A was run?
A: Its screen value is 0.00173 average fractional NGS count over selection days 2 and 3 (reads of this peptide / all reads for the bait, averaged over ….

Q: With chain 1 G13K as the variant, how does the screen value read?
A: Its screen value is 0.000992 average fractional NGS count over selection days 2 and 3 (reads of this peptide / all reads for the bait, averaged over ….

Q: chain 1 G13S was tested. Which screen value did it give?
A: Its screen value is 0.00151 average fractional NGS count over selection days 2 and 3 (reads of this peptide / all reads for the bait, averaged over ….

Q: Which screen value does the source give for chain 1 G13Q here?
A: The screen value was 0.000525 average fractional NGS count over selection days 2 and 3 (reads of this peptide / all reads for the bait, averaged over ….

Q: How did the screen value turn out when chain 1 G13M was run?
A: The screen value was 0.000519 average fractional NGS count over selection days 2 and 3 (reads of this peptide / all reads for the bait, averaged over ….

Q: How did the screen value turn out when chain 1 G13T was run?
A: The screen value was 0.000744 average fractional NGS count over selection days 2 and 3 (reads of this peptide / all reads for the bait, averaged over ….

Q: How did the screen value turn out when chain 1 T14A was run?
A: Its screen value is 0.00163 average fractional NGS count over selection days 2 and 3 (reads of this peptide / all reads for the bait, averaged over ….

Q: With chain 1 T14Q as the variant, how does the screen value read?
A: Its screen value is 0.000835 average fractional NGS count over selection days 2 and 3 (reads of this peptide / all reads for the bait, averaged over ….

Q: With chain 1 T14E as the variant, how does the screen value read?
A: Its screen value is 0.000967 average fractional NGS count over selection days 2 and 3 (reads of this peptide / all reads for the bait, averaged over ….

Q: Which screen value does the source give for chain 1 T14N here?
A: The screen value was 0.000434 average fractional NGS count over selection days 2 and 3 (reads of this peptide / all reads for the bait, averaged over ….

Q: For chain 1 T14H, which screen value is on record?
A: The screen value was 0.00166 average fractional NGS count over selection days 2 and 3 (reads of this peptide / all reads for the bait, averaged over ….

Q: How did the screen value turn out when chain 1 T14I was run?
A: Its screen value is 0.00075 average fractional NGS count over selection days 2 and 3 (reads of this peptide / all reads for the bait, averaged over ….

Q: chain 1 T14P was tested. Which screen value did it give?
A: The screen value was 0.00162 average fractional NGS count over selection days 2 and 3 (reads of this peptide / all reads for the bait, averaged over ….

Q: With chain 1 T14W as the variant, how does the screen value read?
A: The screen value was 0.000366 average fractional NGS count over selection days 2 and 3 (reads of this peptide / all reads for the bait, averaged over ….

Q: Which screen value does the source give for chain 1 I9G here?
A: Its screen value is 0.000546 average fractional NGS count over selection days 2 and 3 (reads of this peptide / all reads for the bait, averaged over ….

Q: How did the screen value turn out when chain 1 I9Y was run?
A: Its screen value is 0.0023 average fractional NGS count over selection days 2 and 3 (reads of this peptide / all reads for the bait, averaged over ….

Q: How did the screen value turn out when chain 1 I9D was run?
A: The screen value was 0.000867 average fractional NGS count over selection days 2 and 3 (reads of this peptide / all reads for the bait, averaged over ….

Q: chain 1 I9L was tested. Which screen value did it give?
A: The screen value was 0.000942 average fractional NGS count over selection days 2 and 3 (reads of this peptide / all reads for the bait, averaged over ….

Q: For chain 1 I9F, which screen value is on record?
A: The screen value was 0.00108 average fractional NGS count over selection days 2 and 3 (reads of this peptide / all reads for the bait, averaged over ….

Q: With chain 1 I9R as the variant, how does the screen value read?
A: The screen value was 0.00363 average fractional NGS count over selection days 2 and 3 (reads of this peptide / all reads for the bait, averaged over ….

Q: Which screen value does the source give for chain 1 I9W here?
A: The screen value was 0.00339 average fractional NGS count over selection days 2 and 3 (reads of this peptide / all reads for the bait, averaged over ….

Q: How did the screen value turn out when chain 1 I9K was run?
A: Its screen value is 0.000873 average fractional NGS count over selection days 2 and 3 (reads of this peptide / all reads for the bait, averaged over ….

Q: How did the screen value turn out when chain 1 I9M was run?
A: Its screen value is 0.00443 average fractional NGS count over selection days 2 and 3 (reads of this peptide / all reads for the bait, averaged over ….

Q: How did the screen value turn out when chain 1 I9H was run?
A: The screen value was 0.0279 average fractional NGS count over selection days 2 and 3 (reads of this peptide / all reads for the bait, averaged over ….

Q: How did the screen value turn out when chain 1 I9T was run?
A: The screen value was 0.000404 average fractional NGS count over selection days 2 and 3 (reads of this peptide / all reads for the bait, averaged over ….

Q: With chain 1 A5R as the variant, how does the screen value read?
A: Its screen value is 0.00499 average fractional NGS count over selection days 2 and 3 (reads of this peptide / all reads for the bait, averaged over ….

Q: chain 1 A5E was tested. Which screen value did it give?
A: Its screen value is 0.0005 average fractional NGS count over selection days 2 and 3 (reads of this peptide / all reads for the bait, averaged over ….

Q: Which screen value does the source give for chain 1 A5H here?
A: The screen value was 0.0461 average fractional NGS count over selection days 2 and 3 (reads of this peptide / all reads for the bait, averaged over ….

Q: With chain 1 A5W as the variant, how does the screen value read?
A: Its screen value is 0.000742 average fractional NGS count over selection days 2 and 3 (reads of this peptide / all reads for the bait, averaged over ….

Q: With chain 1 A5N as the variant, how does the screen value read?
A: Its screen value is 0.00753 average fractional NGS count over selection days 2 and 3 (reads of this peptide / all reads for the bait, averaged over ….

Q: Which screen value does the source give for chain 1 A5L here?
A: Its screen value is 0.00177 average fractional NGS count over selection days 2 and 3 (reads of this peptide / all reads for the bait, averaged over ….

Q: How did the screen value turn out when chain 1 Q3D was run?
A: The screen value was 0.000539 average fractional NGS count over selection days 2 and 3 (reads of this peptide / all reads for the bait, averaged over ….

Q: For chain 1 Q3L, which screen value is on record?
A: Its screen value is 0.00235 average fractional NGS count over selection days 2 and 3 (reads of this peptide / all reads for the bait, averaged over ….

Q: Which screen value does the source give for chain 1 Q3M here?
A: Its screen value is 0.002 average fractional NGS count over selection days 2 and 3 (reads of this peptide / all reads for the bait, averaged over ….

Q: For chain 1 Q3G, which screen value is on record?
A: Its screen value is 0.000648 average fractional NGS count over selection days 2 and 3 (reads of this peptide / all reads for the bait, averaged over ….

Q: Which screen value does the source give for chain 1 Q3W here?
A: The screen value was 0.00112 average fractional NGS count over selection days 2 and 3 (reads of this peptide / all reads for the bait, averaged over ….

Q: Which screen value does the source give for chain 1 Q12L here?
A: Its screen value is 0.00232 average fractional NGS count over selection days 2 and 3 (reads of this peptide / all reads for the bait, averaged over ….

Q: With chain 1 Q12D as the variant, how does the screen value read?
A: Its screen value is 0.00045 average fractional NGS count over selection days 2 and 3 (reads of this peptide / all reads for the bait, averaged over ….

Q: With chain 1 Q12M as the variant, how does the screen value read?
A: Its screen value is 0.000477 average fractional NGS count over selection days 2 and 3 (reads of this peptide / all reads for the bait, averaged over ….

Q: Which screen value does the source give for chain 1 Q12V here?
A: Its screen value is 0.0011 average fractional NGS count over selection days 2 and 3 (reads of this peptide / all reads for the bait, averaged over ….

Q: How did the screen value turn out when chain 1 Q12S was run?
A: The screen value was 0.00474 average fractional NGS count over selection days 2 and 3 (reads of this peptide / all reads for the bait, averaged over ….

Q: How did the screen value turn out when chain 1 Q12P was run?
A: Its screen value is 0.00104 average fractional NGS count over selection days 2 and 3 (reads of this peptide / all reads for the bait, averaged over ….

Q: How did the screen value turn out when chain 1 Q12Y was run?
A: Its screen value is 0.00103 average fractional NGS count over selection days 2 and 3 (reads of this peptide / all reads for the bait, averaged over ….

Q: How did the screen value turn out when chain 1 Q12I was run?
A: The screen value was 0.00133 average fractional NGS count over selection days 2 and 3 (reads of this peptide / all reads for the bait, averaged over ….
